Data published in patent US8440430, “Modified dicer polypeptide and methods of use thereof” (The Regents of the University of California).

What was measured:
[1] = biological target: T1, TRBP, Q15633
T1 chain: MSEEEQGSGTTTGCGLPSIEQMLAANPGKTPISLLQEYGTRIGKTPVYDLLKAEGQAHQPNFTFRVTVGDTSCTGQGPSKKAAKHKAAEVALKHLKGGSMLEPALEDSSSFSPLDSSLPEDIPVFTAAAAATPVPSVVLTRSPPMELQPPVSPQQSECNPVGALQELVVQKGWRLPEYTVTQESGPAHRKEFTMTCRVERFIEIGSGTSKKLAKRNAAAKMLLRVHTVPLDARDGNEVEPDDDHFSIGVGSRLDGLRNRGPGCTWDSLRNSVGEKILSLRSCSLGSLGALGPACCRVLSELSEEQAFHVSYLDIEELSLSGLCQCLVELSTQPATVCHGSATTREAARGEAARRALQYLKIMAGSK

[2] = biological target: T2, ΔDEAD human Dicer (deletion of amino acids 1-604 spanning the entire DExD/H-box domain) (human, UniProt Q9UPY3 605-1922); assay: size exclusion chromatography with SDS-PAGE of fractions after 60 min pre-incubation on ice
T2 construct: The DEAD-F primer adds an initiator Met; also called ΔDEAD hDcr; DExD/H-box deletion protein
T2 sequence: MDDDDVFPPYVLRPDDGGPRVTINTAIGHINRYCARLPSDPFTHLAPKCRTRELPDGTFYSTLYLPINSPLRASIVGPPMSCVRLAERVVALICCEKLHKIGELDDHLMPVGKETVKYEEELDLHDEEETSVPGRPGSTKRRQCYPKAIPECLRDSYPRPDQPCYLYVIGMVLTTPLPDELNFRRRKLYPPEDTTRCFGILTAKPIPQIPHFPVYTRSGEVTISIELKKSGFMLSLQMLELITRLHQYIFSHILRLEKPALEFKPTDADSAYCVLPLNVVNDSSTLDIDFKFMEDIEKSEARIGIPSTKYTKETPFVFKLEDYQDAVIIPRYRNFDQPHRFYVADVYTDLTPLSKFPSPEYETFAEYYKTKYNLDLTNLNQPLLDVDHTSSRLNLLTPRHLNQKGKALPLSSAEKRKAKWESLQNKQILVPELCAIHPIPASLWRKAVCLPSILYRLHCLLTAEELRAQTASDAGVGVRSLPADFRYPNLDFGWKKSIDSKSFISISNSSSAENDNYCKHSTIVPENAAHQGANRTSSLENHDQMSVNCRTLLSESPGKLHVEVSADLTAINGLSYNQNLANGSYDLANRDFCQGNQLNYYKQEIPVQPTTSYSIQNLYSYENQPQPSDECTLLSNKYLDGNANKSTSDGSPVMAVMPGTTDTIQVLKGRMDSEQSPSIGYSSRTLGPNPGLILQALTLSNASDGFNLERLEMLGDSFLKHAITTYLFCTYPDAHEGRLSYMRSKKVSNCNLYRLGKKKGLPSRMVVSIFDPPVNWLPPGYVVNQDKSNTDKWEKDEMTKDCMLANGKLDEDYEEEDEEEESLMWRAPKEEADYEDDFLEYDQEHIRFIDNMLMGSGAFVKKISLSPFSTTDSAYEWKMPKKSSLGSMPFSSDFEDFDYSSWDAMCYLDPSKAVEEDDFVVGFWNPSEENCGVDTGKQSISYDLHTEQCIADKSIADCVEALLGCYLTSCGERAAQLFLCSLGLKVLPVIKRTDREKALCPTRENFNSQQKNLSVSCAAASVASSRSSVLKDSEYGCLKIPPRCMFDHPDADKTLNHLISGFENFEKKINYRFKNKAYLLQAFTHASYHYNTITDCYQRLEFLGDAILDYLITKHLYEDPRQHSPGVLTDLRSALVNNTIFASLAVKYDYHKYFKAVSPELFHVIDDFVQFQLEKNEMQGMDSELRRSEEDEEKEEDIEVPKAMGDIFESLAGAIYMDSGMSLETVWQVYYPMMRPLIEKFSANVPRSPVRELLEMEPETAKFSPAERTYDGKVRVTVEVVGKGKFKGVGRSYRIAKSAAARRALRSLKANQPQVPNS
Protocol: FIGS. 6A and 6B. Interaction of human Dicer with TRBP mediated by DEAD domain A, TRBP interacts with hDcr through DEAD domain. Prior to size exclusion chromatography, 2.5 nmol of each human Dicer protein and 9.0 nmol of TRBP were pre-incubated on ice for 60 minutes. Left panel, a chromatogram (top) of wild-type human Dicer (flhDcr) with TRBP and SDS-PAGE gel analysis of fractions (bottom); Right panel, a chromatogram (top) of ΔDEAD human Dicer (ΔDEAD) with TRBP and SDS-PAGE gel analysis of fractions (bottom). B, Binding of TRBP to hDcr increased its dicing activity. A multiple-turnover assay for 37ab cleavage using 100 nM dsRNA and 5 nM hDcr or hDcr-TRBP.

B1: full-length wild-type human Dicer (hDcr), accession no. NP-803187 (protein)
chain: MKSPALQPLSMAGLQLMTPASSPMGPFFGLPWQQEAIHDNIYTPRKYQVELLEAALDHNTIVCLNTGSGKTFIAVLLTKELSYQIRGDFSRNGKRTVFLVNSANQVAQQVSAVRTHSDLKVGEYSNLEVNASWTKERWNQEFTKHQVLIMTCYVALNVLKNGYLSLSDINLLVFDECHLAILDHPYREIMKLCENCPSCPRILGLTASILNGKCDPEELEEKIQKLEKILKSNAETATDLVVLDRYTSQPCEIVVDCGPFTDRSGLYERLLMELEEALNFINDCNISVHSKERDSTLISKQILSDCRAVLVVLGPWCADKVAGMMVRELQKYIKHEQEELHRKFLLFTDTFLRKIHALCEEHFSPASLDLKFVTPKVIKLLEILRKYKPYERQQFESVEWYNNRNQDNYVSWSDSEDDDEDEEIEEKEKPETNFPSPFTNILCGIIFVERRYTAVVLNRLIKEAGKQDPELAYISSNFITGHGIGKNQPRNKQMEAEFRKQEEVLRKFRAHETNLLIATSIVEEGVDIPKCNLVVRFDLPTEYRSYVQSKGRARAPISNYIMLADTDKIKSFEEDLKTYKAIEKILRNKCSKSVDTGETDIDPVMDDDDVFPPYVLRPDDGGPRVTINTAIGHINRYCARLPSDPFTHLAPKCRTRELPDGTFYSTLYLPINSPLRASIVGPPMSCVRLAERVVALICCEKLHKIGELDDHLMPVGKETVKYEEELDLHDEEETSVPGRPGSTKRRQCYPKAIPECLRDSYPRPDQPCYLYVIGMVLTTPLPDELNFRRRKLYPPEDTTRCFGILTAKPIPQIPHFPVYTRSGEVTISIELKKSGFMLSLQMLELITRLHQYIFSHILRLEKPALEFKPTDADSAYCVLPLNVVNDSSTLDIDFKFMEDIEKSEARIGIPSTKYTKETPFVFKLEDYQDAVIIPRYRNFDQPHRFYVADVYTDLTPLSKFPSPEYETFAEYYKTKYNLDLTNLNQPLLDVDHTSSRLNLLTPRHLNQKGKALPLSSAEKRKAKWESLQNKQILVPELCAIHPIPASLWRKAVCLPSILYRLHCLLTAEELRAQTASDAGVGVRSLPADFRYPNLDFGWKKSIDSKSFISISNSSSAENDNYCKHSTIVPENAAHQGANRTSSLENHDQMSVNCRTLLSESPGKLHVEVSADLTAINGLSYNQNLANGSYDLANRDFCQGNQLNYYKQEIPVQPTTSYSIQNLYSYENQPQPSDECTLLSNKYLDGNANKSTSDGSPVMAVMPGTTDTIQVLKGRMDSEQSPSIGYSSRTLGPNPGLILQALTLSNASDGFNLERLEMLGDSFLKHAITTYLFCTYPDAHEGRLSYMRSKKVSNCNLYRLGKKKGLPSRMVVSIFDPPVNWLPPGYVVNQDKSNTDKWEKDEMTKDCMLANGKLDEDYEEEDEEEESLMWRAPKEEADYEDDFLEYDQEHIRFIDNMLMGSGAFVKKISLSPFSTTDSAYEWKMPKKSSLGSMPFSSDFEDFDYSSWDAMCYLDPSKAVEEDDFVVGFWNPSEENCGVDTGKQSISYDLHTEQCIADKSIADCVEALLGCYLTSCGERAAQLFLCSLGLKVLPVIKRTDREKALCPTRENFNSQQKNLSVSCAAASVASSRSSVLKDSEYGCLKIPPRCMFDHPDADKTLNHLISGFENFEKKINYRFKNKAYLLQAFTHASYHYNTITDCYQRLEFLGDAILDYLITKHLYEDPRQHSPGVLTDLRSALVNNTIFASLAVKYDYHKYFKAVSPELFHVIDDFVQFQLEKNEMQGMDSELRRSEEDEEKEEDIEVPKAMGDIFESLAGAIYMDSGMSLETVWQVYYPMMRPLIEKFSANVPRSPVRELLEMEPETAKFSPAERTYDGKVRVTVEVVGKGKFKGVGRSYRIAKSAAARRALRSLKANQPQVPNS
cleavage rate in a multiple-turnover assay for 37ab cleavage (100 nM dsRNA, 5 nM hDcr or hDcr-TRBP) [1]: increased the cleavage rate of the resulting protein complex

B2: TRBP (other, human, UniProt Q15633 1-366, looked up)
chain: MSEEEQGSGTTTGCGLPSIEQMLAANPGKTPISLLQEYGTRIGKTPVYDLLKAEGQAHQPNFTFRVTVGDTSCTGQGPSKKAAKHKAAEVALKHLKGGSMLEPALEDSSSFSPLDSSLPEDIPVFTAAAAATPVPSVVLTRSPPMELQPPVSPQQSECNPVGALQELVVQKGWRLPEYTVTQESGPAHRKEFTMTCRVERFIEIGSGTSKKLAKRNAAAKMLLRVHTVPLDARDGNEVEPDDDHFSIGVGSRLDGLRNRGPGCTWDSLRNSVGEKILSLRSCSLGSLGALGPACCRVLSELSEEQAFHVSYLDIEELSLSGLCQCLVELSTQPATVCHGSATTREAARGEAARRALQYLKIMAGSK
notes: also called human partner protein TRBP
binding result [2]: no binding
